Kd and koff data for seven molecules are collected here from publication PMC9802395 (2022).

Like-named read-outs stand apart in the source and are kept apart here.

Sequences and labels used below:
B1: biotinylated EIIIB (protein fragment of fibronectin splice variant EIIIB) (domain or fragment)
chain: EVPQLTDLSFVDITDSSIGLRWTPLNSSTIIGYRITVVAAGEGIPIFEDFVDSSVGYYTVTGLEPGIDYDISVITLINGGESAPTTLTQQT
modifications: biotin (ChromaLink NHS-biotin reagent)

Among the targets are LMJ1.3J; LMJ1.2G; LMJ2.5C; LMJ2.4C; LMJ2.6A; LMJ2.5G; LMJ2.5J; LMJ2.5H; NJB2.
Assay in all cases: BLI
For orientation: In BLI a coated tip is dipped into the sample, and binding shifts an interference pattern.

Assay [1] concerns the target B1.
Assay [2] addresses B1. This is another data set of the same source.
The target in assay [3] is B1. This is another data set of the same source.
The target in assay [4] is B1. The source holds these as a separate data set.

LMJ2.6A, sequence (P02751 1266-1356): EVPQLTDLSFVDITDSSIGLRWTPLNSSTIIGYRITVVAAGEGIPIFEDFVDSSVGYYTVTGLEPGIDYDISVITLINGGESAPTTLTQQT
LMJ2.5C, sequence (P02751 1266-1356): as above
LMJ2.5H, sequence (P02751 1266-1356): as above
LMJ2.5G, sequence (P02751 1266-1356): as above
LMJ2.4C, sequence (P02751 1266-1356): as above
LMJ1.2G, sequence (P02751 1266-1356): as above
LMJ2.5J, sequence (P02751 1266-1356): as above
NJB2, sequence (P02751 1266-1356): as above
LMJ1.3J, sequence (P02751 1266-1356): as above

Turning to B1, the equilibrium dissociation constant (Kd) with LMJ1.3J came to 0.402 nM; in the assay with LMJ1.2G, 0.973 nM; with LMJ2.5C it was 0.0785 nM; with LMJ2.4C, 0.0626 nM; in the assay with LMJ2.6A it was 0.344 nM; with LMJ2.5G, 0.166 nM. For the same molecule, the Kd is 0.0622 nM with LMJ2.5J, 0.227 nM with LMJ2.5H and 1.82 nM with NJB2. For the same molecule, the off-rate (koff) came to 0.000305 s⁻¹ in the assay with LMJ1.3J; 0.000475 s⁻¹ with LMJ1.2G; 3.52e-05 s⁻¹ with LMJ2.5C; 4.8e-05 s⁻¹ in the assay with LMJ2.4C; 7.47e-05 s⁻¹ with LMJ2.6A; 9.13e-05 s⁻¹ in the assay with LMJ2.5G. In addition, the koff in the assay with LMJ2.5J amounted to 4.45e-05 s⁻¹; with LMJ2.5H it was 0.000136 s⁻¹; in the assay with NJB2 it was 0.00104 s⁻¹.

B2: NJB2-IL2 (NJB2 nanobody fused to murine IL-2) (VHH)
VHH: QVQLVETGGGLVQAGGSLRLSCAASGSTFSHNAGGWYRQAPEKQRELVAGISSDGNINYADSVKDRFTISRDNASNTMYLQMNNLKPEDTAVYVCNIRGSYGNTYYSRWGQGTQVTVSS
B2: the Kd in [1] was determined as 0.996 nM; in assay [3], 1.1 nM. The koff in [2] amounted to 0.000289 s⁻¹.

B3: LMJ1.2C-IL2 (LMJ1.2C nanobody fused to murine IL-2) (VHH)
VHH: QVQLVETGGGLVQAGGSLRLSCAASGSTFSHSAGGWYRQAPEKQRELVAGIRSDGNINYADSVKDRFTISRDNASNTMYLQMNNLKPEDTAVYVCNIRGSYGNTYYSRWGQGTQVTVSS
Regarding B3, in assay [1], the affinity, expressed as Kd, was 0.0144 nM. This molecule returned a koff in assay [2] of 5.06e-06 s⁻¹.

B4: LMJ2.5I-IL2 (LMJ2.5I nanobody fused to murine IL-2) (VHH)
VHH: RVQLVETGGGLVQAGGSLRLSCAVSGSTFSHSAGGWYRQAPEKQRELVAGIRSDGNINYADSVKDRFTISRDNASNTMYLQMNNLKPEDTAVYVCNIRGSYGNTYYSRWGQGAQVTVSS
On to B4, for which the equilibrium dissociation constant (Kd) in assay [1] is under 0.001 nM. The molecule also gave a koff in assay [2] of under 1e-07 s⁻¹.

B5: LMJ2.5I nanobody, biotin-tagged (VHH)
VHH: RVQLVETGGGLVQAGGSLRLSCAVSGSTFSHSAGGWYRQAPEKQRELVAGIRSDGNINYADSVKDRFTISRDNASNTMYLQMNNLKPEDTAVYVCNIRGSYGNTYYSRWGQGAQVTVSS
modifications: biotin at the C-terminus via sortase-mediated tagging (nucleophile GGGK-Biotin)
B5 displayed a dissociation rate constant (koff) in assay [4] of 2.49e-05 s⁻¹.

B6: NJB2-IL2-mt (NJB2 fused to murine IL-2 bearing point mutations that abrogate cytokine activity) (VHH)
VHH: QVQLVETGGGLVQAGGSLRLSCAASGSTFSHNAGGWYRQAPEKQRELVAGISSDGNINYADSVKDRFTISRDNASNTMYLQMNNLKPEDTAVYVCNIRGSYGNTYYSRWGQGTQVTVSS
In turn, B6 had an equilibrium dissociation constant (Kd) in assay [3] of 1.6 nM.

B7: LMJ1.2C nanobody, biotin-tagged (VHH)
VHH: QVQLVETGGGLVQAGGSLRLSCAASGSTFSHSAGGWYRQAPEKQRELVAGIRSDGNINYADSVKDRFTISRDNASNTMYLQMNNLKPEDTAVYVCNIRGSYGNTYYSRWGQGTQVTVSS
modifications: biotin at the C-terminus via sortase-mediated tagging (nucleophile GGGK-Biotin)
As to B7, in assay [4], the koff worked out at 0.00015 s⁻¹.

For orientation: Kd means a measure of binding affinity in units of concentration. Low readings indicate a tighter complex, high ones a looser complex. The koff is the rate constant with which the complex falls apart. Higher therefore signals fast dissociation.
